± gives the uncertainty stated by the source.
Test: self-splicing fitness, log relative to wild type (ln ratio); higher = more splicing; Tetrahymena group I intron in knt gene, E. coli kanamycin selection, DiMSum; sequences stand for … in CUCUCU…GGAGGGAAAAGUUAUCAGGCAUGCACCUGGUAGCUAGUCUUUAAACCAAUAGAUUGCAUCGGUUUAAAAGGCAAGACCGUCAAAUUGCGGGAAAGGGGUCAACAGCCGUUCAGUACCAAGUCUCAGGGGAAACUUUGAGAUGGCCUUGCAAAGGGUAUGGUAAUAAGCUGACGGACAUGGUCCUAACCACGCAGCCAAGUCCUAAGUCAACAGAUCUUCUGUUGAUAUGGAUGCAGUUCACAGACUAAAUGUCGGUCGGGGAAGAUGUAUUCUUCUCAUAAGAUAUAGUCGGACCUCUCCUUAAUGGGAGCUAGCGGAUGAAGUGAUGCAACACUGGAGCCGCUGGGAACUAAUUUGUAUGCGAAAGUAUAUUGAUUAGUUUUGGAGUACUCGUGGUCG
Summary of the method: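 Six replicate transformations of E. coli BL21(DE3) with a pET-22b(+) library were grown overnight at 37°C or 30°C. The library randomised all eight P1ex-region intron nucleotides, the intron lying in the knt kanamycin-resistance gene, and plates were LB agar with or without 25 μg/mL kanamycin plus 100 μg/mL carbenicillin, 50 μM IPTG and 0.2% rhamnose. Pooled colonies were amplicon-sequenced on an Illumina HiSeq 2500, and fitness is the DiMSum error-weighted combination of wild-type-normalised replicate fold changes, kanamycin versus none.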

Sequence | self-splicing fitness (ln) (30 °C) | self-splicing fitness (ln) (37 °C)
GUGUAGCAAUAUUACGUGCG | -1.8 ± 0.18 | -0.374 ± 0.19
CAUAAGCAAUAUUACGGCAU | -4.06 ± 0.31 | -1.15 ± 0.2
GGCCAGCAAUAUUACGGCGC | -1.79 ± 0.21 | -1.57 ± 0.34
AGUAAGCAAUAUUACGCCUU | -1.74 ± 0.12 | -0.241 ± 0.14
AACGAGCAAUAUUACGAAGC | -3.92 ± 0.42 | -1.91 ± 0.37
GACCAGCAAUAUUACGUUUA | -0.372 ± 0.051 | -0.0736 ± 0.062
AGUUAGCAAUAUUACGGUAC | -1.49 ± 0.2 | -2.76 ± 0.28
ACUGAGCAAUAUUACGAACA | -3.84 ± 0.47 | -2.59 ± 0.48
UACAAGCAAUAUUACGAGUU | -2.14 ± 0.069 | -0.96 ± 0.074
CAGUAGCAAUAUUACGGGUU | -2.49 ± 0.18 | -1.82 ± 0.2
CCCUAGCAAUAUUACGGGCA | -2.16 ± 0.22 | -1.55 ± 0.2
AUGUAGCAAUAUUACGCAUA | -2.46 ± 0.28 | -1.85 ± 0.26
CUCGAGCAAUAUUACGCGAC |  | -0.0316 ± 0.34
GCCAAGCAAUAUUACGCAAU | -1.35 ± 0.075 | -0.812 ± 0.082
GGAGAGCAAUAUUACGGAUG |  | -1.45 ± 0.35
GAUGAGCAAUAUUACGGUCA | -3.49 ± 0.47 | -0.516 ± 0.19
GUAUAGCAAUAUUACGAUGU | -1.07 ± 0.12 | -0.00633 ± 0.17
GCGAAGCAAUAUUACGUAUC | -3.34 ± 0.3 | -0.83 ± 0.14
CACCAGCAAUAUUACGGCAU | -2.64 ± 0.066 | -0.735 ± 0.069
GUCGAGCAAUAUUACGUGUC | -2.18 ± 0.08 | -1.6 ± 0.077

Sequence | self-splicing fitness (ln) (30 °C) | self-splicing fitness (ln) (37 °C)
GAUCAGCAAUAUUACGCUGC | -3.18 ± 0.19 | -2.18 ± 0.23
ACUAAGCAAUAUUACGUGCC | -1.22 ± 0.13 | -0.754 ± 0.14
AUUUAGCAAUAUUACGUGGA | -3.25 ± 0.21 | -2.04 ± 0.16
CGGUAGCAAUAUUACGUCGG | -0.5 ± 0.095 | 0.638 ± 0.12
ACCCAGCAAUAUUACGGAUG | -1.57 ± 0.067 | -0.939 ± 0.083
GACUAGCAAUAUUACGCUCG | -1.01 ± 0.14 | -0.0622 ± 0.19
CCCUAGCAAUAUUACGCCCG | -3.81 ± 0.37 | -2.12 ± 0.37
UCUUAGCAAUAUUACGGGCG | -1.5 ± 0.14 | -0.448 ± 0.17
UCCCAGCAAUAUUACGUGCA | -0.634 ± 0.06 | -0.597 ± 0.078
GGUGAGCAAUAUUACGGUCU | -0.893 ± 0.14 | -0.768 ± 0.2
CAACAGCAAUAUUACGUUCU | -1.32 ± 0.073 | -0.92 ± 0.094
ACUAAGCAAUAUUACGAGAU | -3 ± 0.15 | -2.45 ± 0.2
CUCGAGCAAUAUUACGGUCC | -3 ± 0.36 | -2.33 ± 0.45
AACCAGCAAUAUUACGUUUA | -1.01 ± 0.062 | -0.649 ± 0.074
ACAAAGCAAUAUUACGUUGA | -1.49 ± 0.079 | -1.24 ± 0.089
CUGGAGCAAUAUUACGCAAA | -3.87 ± 0.42 | 
GCAAAGCAAUAUUACGUUCC | -0.778 ± 0.082 | -0.849 ± 0.14
CCUGAGCAAUAUUACGUGAC | -3.82 ± 0.25 | -2.17 ± 0.22
ACACAGCAAUAUUACGAAAG | -2.32 ± 0.074 | -2.06 ± 0.11

Reference: the supplement of paper PMC7877785
